# T1: PPARγ (Oryctolagus cuniculus, UniProt O19052)
# T1 construct: endogenous in cells; host or cells: RK-13 (rabbit kidney, ATCC)
# T1 sequence (O19052 1-475): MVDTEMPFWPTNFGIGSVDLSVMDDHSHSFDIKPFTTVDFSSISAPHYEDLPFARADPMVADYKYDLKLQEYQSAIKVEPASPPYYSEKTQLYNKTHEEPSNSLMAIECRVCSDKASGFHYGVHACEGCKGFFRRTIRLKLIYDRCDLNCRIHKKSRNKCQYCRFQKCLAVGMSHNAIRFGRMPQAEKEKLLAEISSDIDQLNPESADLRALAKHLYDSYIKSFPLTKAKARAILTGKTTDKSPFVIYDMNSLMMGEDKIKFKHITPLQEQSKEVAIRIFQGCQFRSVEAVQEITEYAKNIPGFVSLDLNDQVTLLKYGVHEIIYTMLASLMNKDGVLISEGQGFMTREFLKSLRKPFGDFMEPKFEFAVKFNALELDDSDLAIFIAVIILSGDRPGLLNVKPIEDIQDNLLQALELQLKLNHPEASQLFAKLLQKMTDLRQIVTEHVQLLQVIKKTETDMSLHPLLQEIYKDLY
# T2: hPPARγ2, in vitro transcribed/translated protein (human, UniProt P37231 1-505)
# T2 construct: PPARγ2 isoform, with the additional N-terminal amino acids encoded by exon B; also called human PPARγ2
# T2 sequence (looked up): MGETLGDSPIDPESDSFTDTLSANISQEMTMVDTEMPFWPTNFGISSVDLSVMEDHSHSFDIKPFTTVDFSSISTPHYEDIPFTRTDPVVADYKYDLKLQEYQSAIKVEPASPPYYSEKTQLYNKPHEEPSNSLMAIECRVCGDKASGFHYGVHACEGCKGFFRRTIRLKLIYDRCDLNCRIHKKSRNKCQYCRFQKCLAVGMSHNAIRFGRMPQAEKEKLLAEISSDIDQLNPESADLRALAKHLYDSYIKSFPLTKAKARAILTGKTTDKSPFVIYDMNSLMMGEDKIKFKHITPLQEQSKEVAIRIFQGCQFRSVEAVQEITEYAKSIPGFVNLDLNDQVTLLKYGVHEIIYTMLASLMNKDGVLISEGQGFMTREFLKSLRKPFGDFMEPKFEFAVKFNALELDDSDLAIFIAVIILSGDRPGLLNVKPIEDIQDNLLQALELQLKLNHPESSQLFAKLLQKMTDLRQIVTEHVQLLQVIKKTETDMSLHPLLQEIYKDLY
# T3: ADD-1 (UniProt P56720-1 P56720-1:1-1110)
# T3 sequence: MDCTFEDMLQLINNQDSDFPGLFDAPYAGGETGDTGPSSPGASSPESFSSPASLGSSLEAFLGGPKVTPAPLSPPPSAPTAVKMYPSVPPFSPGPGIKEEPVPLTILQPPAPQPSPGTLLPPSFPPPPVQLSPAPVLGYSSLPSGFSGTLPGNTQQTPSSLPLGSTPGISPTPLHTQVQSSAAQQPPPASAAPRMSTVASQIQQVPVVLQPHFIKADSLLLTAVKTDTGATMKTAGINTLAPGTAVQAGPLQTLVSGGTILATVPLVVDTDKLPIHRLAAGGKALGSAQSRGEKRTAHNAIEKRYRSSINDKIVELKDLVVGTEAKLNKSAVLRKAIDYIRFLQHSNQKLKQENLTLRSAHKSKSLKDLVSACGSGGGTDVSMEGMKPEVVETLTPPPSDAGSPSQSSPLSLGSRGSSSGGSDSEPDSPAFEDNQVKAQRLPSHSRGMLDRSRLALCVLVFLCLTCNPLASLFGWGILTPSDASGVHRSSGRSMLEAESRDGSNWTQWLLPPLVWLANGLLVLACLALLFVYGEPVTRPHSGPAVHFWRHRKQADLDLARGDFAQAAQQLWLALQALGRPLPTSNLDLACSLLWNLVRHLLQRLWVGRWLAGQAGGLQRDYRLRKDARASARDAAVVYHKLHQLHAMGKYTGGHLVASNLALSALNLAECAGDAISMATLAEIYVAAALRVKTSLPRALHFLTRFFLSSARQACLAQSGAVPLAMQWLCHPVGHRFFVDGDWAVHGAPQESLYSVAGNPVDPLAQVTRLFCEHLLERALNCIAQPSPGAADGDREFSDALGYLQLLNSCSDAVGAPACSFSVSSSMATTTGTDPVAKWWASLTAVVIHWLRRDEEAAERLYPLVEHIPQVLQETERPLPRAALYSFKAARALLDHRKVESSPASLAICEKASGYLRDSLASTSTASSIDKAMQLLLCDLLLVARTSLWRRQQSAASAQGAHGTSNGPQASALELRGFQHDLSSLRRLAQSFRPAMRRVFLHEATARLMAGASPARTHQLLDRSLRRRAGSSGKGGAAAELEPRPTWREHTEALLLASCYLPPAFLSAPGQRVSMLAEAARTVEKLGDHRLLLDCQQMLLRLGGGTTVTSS
# B1: mRXRα, in vitro translated protein (receptor, mouse, UniProt P28700 1-467, looked up)
# chain: MDTKHFLPLDFSTQVNSSSLNSPTGRGSMAVPSLHPSLGPGIGSPLGSPGQLHSPISTLSSPINGMGPPFSVISSPMGPHSMSVPTTPTLGFGTGSPQLNSPMNPVSSTEDIKPPLGLNGVLKVPAHPSGNMASFTKHICAICGDRSSGKHYGVYSCEGCKGFFKRTVRKDLTYTCRDNKDCLIDKRQRNRCQYCRYQKCLAMGMKREAVQEERQRGKDRNENEVESTSSANEDMPVEKILEAELAVEPKTETYVEANMGLNPSSPNDPVTNICQAADKQLFTLVEWAKRIPHFSELPLDDQVILLRAGWNELLIASFSHRSIAVKDGILLATGLHVHRNSAHSAGVGAIFDRVLTELVSKMRDMQMDKTELGCLRAIVLFNPDSKGLSNPAEVEALREKVYASLEAYCKHKYPEQPGRFAKLLLRLPALRSIGLKCLEHLFFFKLIGDTPIDTFLMEMLEAPHQAT
# notes: also called mouse retinoid X receptor alpha
# B2: PPARgamma3 E-box (LF-102; core printed) (dsDNA)
# DNA 1: ATTCATGTGACAT
# DNA 2: ATGTCACATGAAT
# B3: ADD-1-403: truncated superactive form of ADD-1 lacking the membrane anchoring domain, equivalent to the proteolytically activated protein (protein, UniProt P56720 1-403, looked up, fragment)
# chain: MDELPFGEAALEQALAEVCEMDAALLTDIEDMLQLINNQDSDFPGLFDAPYAGGETGDTGPSSPGASSPESFSSPASLGSSLEAFLGGPKVTPAPLSPPPSAPTAVKMYPSVPPFSPGPGIKEEPVPLTILQPPAPQPSPGTLLPPSFPPPPVQLSPAPVLGYSSLPSGFSGTLPGNTQQTPSSLPLGSTPGISPTPLHTQVQSSAAQQPPPASAAPRMSTVASQIQQVPVVLQPHFIKADSLLLTAVKTDTGATMKTAGINTLAPGTAVQAGPLQTLVSGGTILATVPLVVDTDKLPIHRLAAGGKALGSAQSRGEKRTAHNAIEKRYRSSINDKIVELKDLVVGTEAKLNKSAVLRKAIDYIRFLQHSNQKLKQENLTLRSAHKSKSLKDLVSACGSGGGT
# How the values were obtained:
# PPARγ = biological target: T1, PPARγ; assay: J3-TK-LUC PPRE-driven luciferase reporter in RK-13 cells; type: cell-based, rabbit
# Description: Next we wanted to assess whether the above-mentioned changes in PPARγ expression were associated with changes in the capabilities of PPARγ to transactivate. A PPRE-driven luciferase reporter gene, containing three copies of the apo A-II J site (Vu-Dac et al., 1995), ie. J3-TK-LUC, was transfected into rabbit kidney-derived RK-13 cells and half of the cells were maintained in cholesterol-depleted medium whereas the other half was grown in the same medium supplemented with a mixture of cholesterol and 25-hydroxycholesterol.
# Site-directed mutagenesis of the E-box in the PPARγ3 promoter was performed by splicing overlapping ends polymerase chain reaction (Ho, et al., Gene 77:51–59 (1989)), using the oligo pairs LF-106/LF-60 and LF-107/LF-68, to generate the plasmid pGL3γ3p800-E-boxmut. This changed the three bases underlined in the sequence 5′-[…]-3′ to 5′-[…]-3′ (SEQ ID NOS: 41 and 42, respectively. The J3-TK-LUC (Vu-Dac et al., 1995) and ACO-TK-LUC (Osumi et al., Biophys. Res. Commun. 175:866–871 (1991)) luciferase reporter vectors and the expression vectors encoding for ADD-1, a dominant negative form of ADD-1, and SREBP-1a (Tontonoz et al., Mol. Cell. Biol. 13:4753–4759 (1993)); Yokoyama et al., Cell 75:187–197 (1993)) were described before. […]
# [1] = biological target: T2, hPPARγ2, in vitro …; assay: EMSA with in vitro translated proteins on the apoA-II J site PPRE oligonucleotide; heterodimer complex on DNA
# Description: To analyze whether PPARγ could bind to a PPRE, classically composed of direct repeats spaced by one intervening nucleotide (DR-1), EMSA was performed using in vitro transcribed/translated PPARγ2 protein. An oligonucleotide containing a high affinity PPRE, previously identified in the apoA-II promoter J site, was used in EMSA (29).
# 7. Electrophoretic Mobility Shift Assays (EMSA) and Oligonucleotide Sequences haPPARγ (39), hPPARγ2, and mRXRα (40) proteins were synthesized in vitro in rabbit reticulocyte lysate (Promega). Molecular weights and quality of the in vitro translated proteins were verified by SDS-PAGE. PPAR (2 μl) and/or RXR (2 μl) were incubated for 15 min on ice in a total volume of 20 μl with 1-ng probe, 2.5 μg of poly(dI-dC) and 1 μg of herring sperm DNA in binding buffer (10 mM Tris-HCl pH 7.9, 40 mMKCl, 10% glycerol, 0.05% Nonidet P-40, and 1 mM dithiothreitol). For competition experiments, increasing amounts (from 10- to 200-fold molar excess) of cold oligonucleotide (AII-J-PPRE, 5'-[…]-3' (41) SEQ ID NO: 24; acyl-CoA oxidase (ACO)-PPRE, 5'-[…]-3' (42) SEQ ID NO: 25; or LPL-PPRE, 5'-[…]-3 (23) SEQ ID NO: 26; were included just before adding T4-PNK end-labeled AII-J-PPRE oligonucleotide. DNA-protein complexes were separated by electrophoresis on a 4% polyacrylamide gel in 0.25×TBE buffer at 4° C. (43).
# ADD-1 = biological target: T3, ADD-1; assay: cell_activity; pGL3gamma3p800 luciferase reporter, Hep G2; details: tags: expression vector, Hep G2 cells
# Description: To assess whether ADD-1 regulates the expression of the hPPARγ3 mRNA, we cotransfected either an expression plasmid coding for ADD-1 together with the pGL3γ3p800 luciferase reporter vector.
# PPARγ mRNA = assay: RNase protection assay of PPARγ mRNA in retrovirally infected 3T3-L1 cells; type: cell-based, mouse; details: 3T3-L1 preadipocytes and adipocytes; retroviral ectopic expression
# Description: To study the effects of ADD-1 on PPARγ expression in more detail, either an empty retroviral vector pBabe or the same vector encoding for full length ADD-1 or the superactive ADD-1-403 form were introduced into 3T3-L1 cells via retroviral infection. […] Infected cells were then cultured to confluence and consecutively treated with differentiation medium. Total RNA was isolated at confluence (preadipocytes) and at day 6 after confluence (adipocytes) from the cells expressing either the empty pBabe vector or the same vector encoding for ADD-1 or ADD-1-403, a truncated form of ADD-1, equivalent to the proteolytically activated protein, which lacks the membrane anchoring domain. […] The effect of retroviral infection was more pronounced in 3T3-L1 adipocytes relative to preadipocytes.
# Control cells received vehicle only.
# The absolute mRNA concentration of the differentially spliced PPARγ variants was measured by RNase protection assay exactly as described (Lemberger et al., J. Biol. Chem. 271:1764–1769 (1995)). The full lenght PPARγ2 coding region plus 33 bp of the 5′ UTR was amplified from human adipose tissue RNA by RT-PCR with the primer pair LF-3/LF-36 and was inserted in the inverted orientation (3′ to 5′ in front of the T7 promoter) into the EcoRI site of the expression vector pSG5 (Stratagene, La Jolla, Calif.). […]
molecule,measurement,setting,value
"CN(CCOc1ccc(CC2SC(=O)NC2=O)cc1)c1ccccn1 (centres unmarked) [BRL 49,653]",J3-TK-LUC reporter activation under cholesterol depletion versus supplemented medium,PPARγ; cholesterol-depleted medium,activated to a significantly higher level
same,promoter activity of J3-TK-LUC reporter,"PPARγ; increasing amounts of ligand, cholesterol-depleted or supplemented medium",dose-dependent activation
B1,binding result,[1],binds
B2,activity,ADD-1,≥ 4 fold
B3,expression of PPARγ mRNA,PPARγ mRNA,significantly more active

# Source: patent publication US7098025B1, “Human peroxisome proliferator activated receptor gamma (pparγ) gene regulatory sequences and uses therefor” (Ligand Pharmaceuticals Incorporated, priority 1997, dated 2006)
